Consider 30 sequences from the nanobody polyreactivity screen of Harvey et al. (2022).

The data set in a line: yeast display, Sf9 membrane polyspecificity reagent, FACS + sequencing; frameworks hold sequencing errors. The method in brief:
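Nanobodies from a synthetic yeast display library (Saccharomyces cerevisiae BJ5465), induced 36–48 hours with galactose, were stained 1 hour at 4 °C with 10% biotinylated, detergent-solubilized Sf9 membrane reagent, enriched on streptavidin microbeads, then FACS-sorted. Anti-HA (expression) and streptavidin (reagent binding) fluorescence set low and high (top ~1%) gates. Polyreactivity labels come from the gate of origin. Genes were colony-PCR amplified, MiSeq 2 × 250 sequenced and filtered by CDR length.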
Consider “QVQLVESGRGLVQAGGSLRLSCAASGSIFRGNAMGWYRQAPGKERELVAAMTKRGGSTYYADSGKGRFTISRDNAKNTDKFQMNSLKPEDTAVYYFAAKPSYRYYKSYDYWGQGTQVTVSS”, for which the “polyreactivity (PSR sort gate)” value was “high polyreactivity”.
On to “QVQLVESGGGLVQAGGSLRLSCAASGRTSLGYDMGWYRQAPGKERELVAAITRGGSTYYADSVKGRFTISRDNAKNTVYLQMNSLKPEDTAVYYCAARPWTSASYDYWGQGTQVTVSS”, for which the “polyreactivity (PSR sort gate)” value was “low polyreactivity”.
As for “QVQLLESGGGLVQAGGSLRLSCAASGITFSQYAMGWYRQAPGKERELVAAISWSGGSTYYANSVKGRFTISRDNAKNTVYLQMNSLKPEDTAVYYCAAVPVHTGSLYWGFTTGYDYWGQGTQVTVSS”, the entry is “low polyreactivity”.
Regarding “QVQLVESGGGLVQAGGSLRLSCAASGRIFWVYAMGWSRQAPGKERERVAAITWRGVSTYFADSVKGRFTISRDNAKNTVYLQMNSLKPEDTAVYYCAVSLYGYSGNYGPYWYDYWGQGTQVTVSS”, the “polyreactivity (PSR sort gate)” value is “low polyreactivity”.
The entry for “QVQLVESGGGLVQAGGSLRLSCAPSGSIFSYYDIGWYIQAPGKERELVAAISWDGGDRTYADSVKGRFTISRDNAKNTVYLQMTSLKPEDTAVYYFAAGWDASYGYDYWGQGTQLTVSS” is “low polyreactivity”.
In the case of “QDQLVESGGGLVQAGGSLRLSCAASGSTFKRYAMGWYSQAPGKVRELVAAISRRGGSTYYADSVKGRFTISRDNAKNTVYLQMNSLKPEDTAVYYCAARIASHHYYYWGQGTQVTVSS”, the “polyreactivity (PSR sort gate)” value is listed as “high polyreactivity”.
“QVQLVESGGGLVQAGGSLRLSCAASGLTSYDYGMGWYRPAPGIERELVAAITWSGGSTYYADSVKGRFTISRDNAKNTVYLQMNSLKPEDTAVYYCAADTWGYGWYGYWGHGTQVTVSS”: the “polyreactivity (PSR sort gate)” value is on record as “low polyreactivity”.
As for “QVQLVESGGGLVQAGGSLRLSCADTGSTFYNYAMGWYRQAHGKERELVAAISSGGSTNYADSVKGLFTISRDNAKNTVYLKMNSLKPEDTAVYYCARRHRVYTSRIGHDYWGQGTQGTVSS”, the “polyreactivity (PSR sort gate)” value was “low polyreactivity”.
Regarding “PVQLVESGGGLVQAGGSLRLSCAASGNAMGWYRQAPGKERELVASINRSGGRTYYADSVKGRFTISRDNAKNTVYLQMNSLKPEDTAVYYCAARPHYDSDYWGQGTQVTVSS”, the “polyreactivity (PSR sort gate)” value is given as “low polyreactivity”.
As for “QFQLVESGGGLVQAGGSLRLSCAASGSTLELNAMGWYIQAPGKERELVAAITSSGGRTYYADSVKGRFTISRDNAKNTVYLQMNSLKPEDTAVYYCAAEPGQHRVVDRYDYWGQGTQVTVSS”, the entry is “low polyreactivity”.
As to “QVQLVESGGGLVQAGGSLRLSCAASGITFGYNAMGWYRQAPGKERELVAAISWRVGSTSYADSVKGRFTISRDNAKNTVYLQMNSLKPEDTAVYYCAAVRYNYNFKMYYWGQGTQVTVSS”, the “polyreactivity (PSR sort gate)” value is on record as “high polyreactivity”.
“QVQLVESGGGLVQAGGSLRLSCAASGSTFTFNAMVWYRQAPGKERELVAAITTSAGSTYYADSVKGRFTISRDNAKNTVYLQMSSLKPEDTAVYYCAARYVPPWGRRYYYWGQGTQVTVSS”: the “polyreactivity (PSR sort gate)” value was “high polyreactivity”.
With “QVQLVESGGGLVQAGGSLRLSCAASGSTIVRYAMGWYRQAPGKERELVAAISSRGGSTYYADSVKGRFTNSRDNAKNTVYLQMNSLKAEDTGVYYCAAAQRCTNAYRVGSWGLGTQVTVSS”, the “polyreactivity (PSR sort gate)” value is listed as “high polyreactivity”.
As for “QVQLVESGGGLVQAGGSLRLSCAASGNTFNSYAMGWYRQAPGKERELVAAISSSTGRTYYADSVKGRFTISRDNAKNTVYLQMNSLKPEDTAVYYCNAYLYLSRNGYWGQGTQVTVSS”, the entry is “high polyreactivity”; as for “QVQLVESGGGLVQAGGSLRLSCAASGSIFDYYAMGWYRQAPGKERELVAAISRSGTTNYADSVKGRFTISRDNAKNTVYFQMNSLKPEDTAVYYCNARTRGYRYTSALYYWGQGTQVTVSS”, “high polyreactivity”.
In the case of “QVQLVESGGGLVQAGGSRRLSCAASGSTFAYYAMGWYRQAPGKERELVAAISWRGGSTYYADSVKGRFTISRDNAKNTVYLQMNSLKPEDTAVYYCATLSAWKASSYDYWGQGTQVTVSS”, the “polyreactivity (PSR sort gate)” value is “high polyreactivity”.
As for “QVQLVESGGGLVQAGGSLRLSCAASGSIFTIYAMGWYRQAPGKERELVAAITRSGGSTSYADSVKGRFTISRDNAKNTVYLQMNSLKPEDTAVYYCNKDLNFAKYISSILYDYWGQGTQVTVSS”, the entry is “low polyreactivity”; as for “QVQLVESGGGLVHAGGSLLLSCAASRFIFASNAMGWYRKAPAKERELVAAISSSGGRTYYADSVKGRFTISRDNAKNSVYLQMNSLKPEDTAVYYCAADWLVTYDYWGQGTQVTVSS”, “high polyreactivity”.
As for “QVQHVESGGGLVQAGGSLRLSCAASGRIFPYYAMGWYRQAPGKERELVATITSGGSTYYADSVKGRFTISRDNAKNTVYLQMNSLKPEDTAVYYCAARYPSIYYYSYDYWGQGTQVTVSS”, the “polyreactivity (PSR sort gate)” value is “high polyreactivity”.
As for “QVQLVESGGGLVQAGVSLRLSCAASGSIFSYNAMGWYRQAPGKERELVAAINNGGSTYYADSVKGRFTISRDNAKNTVYLQMNSLKPEDTAVYYCAAQSGHYAEYNYWGQGTQVTVSS”, the entry is “high polyreactivity”.
“QVQLVESGGGLVQAGGSLRLSCAASGRTFGWNVMGWYRQAPGKERELVAAISGSGGSTYYADSVKGRFTISRDNAKNTVYLQMNSLKPEDTAVYYCAALYGPGREYDYWGQGTQVTVSS”: the “polyreactivity (PSR sort gate)” value is “low polyreactivity”.
As for “QVQLVESGGGLVQAGGSLRLSCAASGRTFVEYAMGWYRPAPGKERELVAAITWDGGSTYYADSVKGRFTISRDNAKYTVYLQMNSLKPEDTAVYYCNADYRQITSYGFDYWGQGTQVTVSS”, the “polyreactivity (PSR sort gate)” value is recorded as “low polyreactivity”.
Take “QVQLVESVGGLVQAGASLRLSCAASGSIFGYNPMGWYRQAPGKERELVAVINASGASTYYADSVKGRFTISRDNAKNTVYLQMNSLKPEDTAVYYCAKDPFPFPGGDYWGQGTQVTVSS”: the “polyreactivity (PSR sort gate)” value is “low polyreactivity”.
As for “QVQLVESGGGLVQAGGSLRLSCAASGLIFWYSAMGWYRQAPGKERELVAAISSGGSTNYADSVKGRFTISRDNAKNTVYLQMNSLKPEDTAVYYCNVYTYRFHTARQAVDYWGQGTQVTVSS”, the “polyreactivity (PSR sort gate)” value was “low polyreactivity”.
As for “QVQLVESGGGLVQAGGSLRLSCAASGSTFDSYAMGWYRQAPGKERELVAAISSGGSTNYADSVKGRFTISRDNAKNTVYLQMNSLKPEDTAVYYCAAYGGHIWWLYRHYGYDYWGQGTQVTVSS”, the entry is “low polyreactivity”; as for “PVQLQESGGGLVQAGGSLRLSCAASGNIFDADIMGWYRQAPGKERELVACIADGGSTNYADSVKGRFTISRDNAKNTVYLQMNSLKPEDTAVYYCAAIAYPDIPTCFDYDSDYFIRGQGTQVTVSS”, “low polyreactivity”; as for “QVQLVESGGGLVQAGGSLRLICAASGFSLYRNSMGWYRQAPGTERELVAAISSSGGRTYYADSVKGRFTISRDNAKNTVYLQMNSLKPEDTAVYYCAADFYRYGPQLGYWGQGTQVTVSS”, “high polyreactivity”.
Take “QVQLVESGGGLVQAGGSLRLSCAASGRTFLGNAMGWYRQAPGKERELVAAIRYSGGRTYYADSVKGRFTISRDNAKNTVYLQMNSLKPEDTAVYYCAKDRRYYKAYDYWGQGTQVTVSS”: the “polyreactivity (PSR sort gate)” value is “low polyreactivity”.
For “QVQLVESGGGLVQAGGSLRLSCAASGSIFLYYAMGWYRQAPGKERELVAAISQNGGSTYYADSVKGRFTISRDNAKNTVYLQMNSLKPEDTAVYYCNKYSFALRYDYWGQGTQVTVSS”, the “polyreactivity (PSR sort gate)” value is on record as “low polyreactivity”.
Regarding “QVQLVESGGGLVQAGGSLRLSCADSGNTFSYYAMGWYRQAPGKEREFVAAIRKSGASTYYADSVKGRFTISRDNAKNTVYLEMNSLKPEDTAVYYCAADGQVSYALGFDYCGQGTQVTVSS”, the “polyreactivity (PSR sort gate)” value is “high polyreactivity”.
